In general, Kd refers to a measure of binding affinity in units of concentration. A higher Kd goes with a looser complex.

Data on four molecules can be found in patent US8906356 (MIT, dated 2014).

Test [1] concerns the target T1, IL-2 receptor (IL-2Rα, IL-2Rβ and IL-2Rγ) on cells (human, UniProt P01589 22-272; P14784 27-551; P31785 23-369).
T1 sequence (looked up) 1: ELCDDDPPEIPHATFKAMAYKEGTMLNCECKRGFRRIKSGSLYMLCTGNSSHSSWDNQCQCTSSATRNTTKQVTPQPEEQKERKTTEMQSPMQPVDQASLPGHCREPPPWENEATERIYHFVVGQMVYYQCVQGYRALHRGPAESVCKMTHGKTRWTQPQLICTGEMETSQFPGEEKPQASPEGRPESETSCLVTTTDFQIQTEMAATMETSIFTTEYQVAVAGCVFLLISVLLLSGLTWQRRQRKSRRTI
T1 sequence (looked up) 2: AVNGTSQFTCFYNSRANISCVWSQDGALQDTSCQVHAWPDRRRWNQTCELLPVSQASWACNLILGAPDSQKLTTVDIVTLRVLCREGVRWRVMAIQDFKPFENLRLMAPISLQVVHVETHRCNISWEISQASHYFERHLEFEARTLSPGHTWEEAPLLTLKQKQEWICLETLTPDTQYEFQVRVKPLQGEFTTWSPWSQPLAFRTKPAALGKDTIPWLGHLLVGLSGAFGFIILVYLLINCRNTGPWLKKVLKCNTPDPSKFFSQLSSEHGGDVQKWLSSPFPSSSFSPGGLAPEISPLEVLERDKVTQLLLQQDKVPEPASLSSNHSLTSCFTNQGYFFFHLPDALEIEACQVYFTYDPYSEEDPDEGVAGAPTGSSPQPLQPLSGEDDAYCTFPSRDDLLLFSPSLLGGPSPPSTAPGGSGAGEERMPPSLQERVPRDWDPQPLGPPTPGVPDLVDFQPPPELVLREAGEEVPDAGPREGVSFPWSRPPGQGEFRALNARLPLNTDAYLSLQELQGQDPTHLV
T1 sequence (looked up) 3: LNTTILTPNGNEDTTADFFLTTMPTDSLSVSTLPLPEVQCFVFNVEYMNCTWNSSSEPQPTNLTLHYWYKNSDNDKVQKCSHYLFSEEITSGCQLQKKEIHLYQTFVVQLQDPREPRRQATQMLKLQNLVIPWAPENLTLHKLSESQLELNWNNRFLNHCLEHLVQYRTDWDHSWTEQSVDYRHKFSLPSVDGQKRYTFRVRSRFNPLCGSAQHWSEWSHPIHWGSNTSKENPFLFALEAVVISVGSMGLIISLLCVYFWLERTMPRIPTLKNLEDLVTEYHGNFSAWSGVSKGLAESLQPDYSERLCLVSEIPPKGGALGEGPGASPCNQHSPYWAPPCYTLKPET
The test is described as follows: cell-based or functional assay.

The target of test [2] is T2, IL-2 receptor α subunit (IL-2Rα, CD25) on Kit225 cells (human, UniProt P01589 22-272).
T2 construct: whole, on cells; Kit225 cells express all three IL-2 receptor subunits, with IL-2Rα in ~10 fold excess; also called p55
T2 sequence (looked up): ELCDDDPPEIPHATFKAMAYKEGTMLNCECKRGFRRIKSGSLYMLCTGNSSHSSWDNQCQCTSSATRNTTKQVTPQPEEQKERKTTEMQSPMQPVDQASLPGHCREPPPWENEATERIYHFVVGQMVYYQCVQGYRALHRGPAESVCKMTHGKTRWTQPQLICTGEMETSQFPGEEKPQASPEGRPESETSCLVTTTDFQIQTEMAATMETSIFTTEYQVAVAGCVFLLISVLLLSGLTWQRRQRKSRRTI
The experiment in a line: cell surface titration on Kit225 cells, flow cytometry with anti-FLAG detection. How it is done: Determination of IL-2Rα binding affinities of IL-2 mutants. […] At low IL-2 mutant concentrations, the total volume was increased to maintain an excess number of IL-2 mutant molecules over the number of IL-2Rα. After incubation, cells were kept on ice and stained with mouse anti-FLAG monoclonal antibody M2 (Sigma Aldrich, St. Louis, Mo.), followed by an Alexa Fluor 488 conjugated goat anti-mouse antibody (Invitrogen, Carlsbad, Calif.), to detect cell-surface bound protein. The mean single-cell fluorescence was measured, and the dissociation constant (K_D) and the 95% confidence interval were determined as previously described, using the following equation: Fobs = cL_0/(K_D + L_0), where $Fobs$ is the background-corrected mean fluorescence, L_0 is the initial concentration of the protein being measured, and c is the proportionality constant.
The IL-2Rα binding affinity of the IL-2 mutants was measured in using Kit225 cells, a human T cell line that is dependent on IL-2 for growth. Kit225 constitutively expresses all three subunits of the IL-2 receptor, with IL-2Rα in ~10 fold excess. The IL-2Rα binding affinity was measured using cell surface titrations on Kit225.
Background: Flow cytometry measures light scatter and fluorescence of single cells or particles in a stream.

Test [3] addresses T2, IL-2 receptor α subunit (IL-2Rα, CD25) …. The experiment in a line: cell surface titration on Kit225 cells (method not restated for the double mutant).

B1: Q126T (2-4 IL-2 with a Q126T point mutation) (ligand)
chain: APTSSSTKKTQLQLEHLLLDLQMILNGISNHKNPRLARMLTFKFYMPEKATELKHLQCLEEELKPLEEALRLAPSKNFHLRPRDLISDVNVIVLELKGSETTFMCEYADETATIVEFLNRWITFCTSIISTLT
For B1, the “IC50 of inhibition of STAT5 phosphorylation in Kit225 cells with 25 pM wild type IL-2” value in test [1] came out at 1.9 nM. Besides, the Kd in test [2] stood at 0.109 nM.

B2: V91R (2-4 IL-2 with a V91R point mutation) (ligand)
chain: APTSSSTKKTQLQLEHLLLDLQMILNGISNHKNPRLARMLTFKFYMPEKATELKHLQCLEEELKPLEEALRLAPSKNFHLRPRDLISDVNRIVLELKGSETTFMCEYADETATIVEFLNRWITFCQSIISTLT
Turning to B2, in test [1], the “IC50 of inhibition of STAT5 phosphorylation in Kit225 cells with 25 pM wild type IL-2” value stood at 2.4 nM. Moreover, binding in test [2] was put at a Kd of 0.119 nM.

B3: Q126T/V91R double mutant (ligand)
chain: APTSSSTKKTQLQLEHLLLDLQMILNGISNHKNPRLARMLTFKFYMPEKATELKHLQCLEEELKPLEEALRLAPSKNFHLRPRDLISDVNRIVLELKGSETTFMCEYADETATIVEFLNRWITFCTSIISTLT
Regarding B3, the Kd in test [3] came out at 2 nM.

B4: 2-4 IL-2 (engineered mutant of human IL-2 with high affinity for IL-2Rα) (ligand)
chain: APTSSSTKKTQLQLEHLLLDLQMILNGISNHKNPRLARMLTFKFYMPEKATELKHLQCLEEELKPLEEALRLAPSKNFHLRPRDLISDVNVIVLELKGSETTFMCEYADETATIVEFLNRWITFCQSIISTLT
With B4, the Kd in test [2] was 0.199 nM.
